Read-outs that look alike come from different tables or passages of the source.
Experiments:
[1] = test system: H1N1 Influenza A/Ca/04/09; test: Comparison to treatment with Tamiflu in infected mice; format: in vivo
H3N2 A/Perth/16/2009 HA = format: binding, influenza A
[2] = target: H3N2 A/New York/55/2004 HA; test: Affinity by FortéBio; format: binding, influenza A
H3N2 A/Hong Kong/8/68 HA = format: binding, influenza A
[3] = target: H7N7 A/Netherlands/219/03 HA; format: binding, influenza A
[4] = target: H7N3 A/Canada/rv444/04 HA; format: binding, influenza A
H3N2 A/Perth/16/2009 = test: MDCK monolayer microneutralization assay; format: cell-based, influenza A
[5] = test system: H3 A/Phillipines/2/82 x-79; test: MDCK monolayer microneutralization assay; format: cell-based, influenza A
H3 A/Udorn/307/1976 = test: MDCK monolayer microneutralization assay; format: cell-based, influenza A
H3N2 A/New York/55/2004 = test: MDCK monolayer microneutralization assay; format: cell-based, influenza A
H3N2 A/Wisconsin/67/2005 = test: MDCK monolayer microneutralization assay; format: cell-based, influenza A
[6] = test system: H3N2 A/Hong Kong/8/68 (A/HongKong/68); test: MDCK monolayer microneutralization assay; format: cell-based, influenza A
H3 A/SW/MN/02719 = format: cell-based, influenza A
H4 (H4N4) A/Bufflehead = format: cell-based, influenza A
H7N3 A/Canada/rv444/04 = format: cell-based, influenza A
[7] = test system: H7N7 A/Netherlands/219/03; format: cell-based, influenza A
H7 A/Sanderling/A106-125 = test: MDCK monolayer microneutralization assay; format: cell-based, influenza A; details: H7 A/Sanderling/A106-125, bird virus
[8] = test system: H7 A/Redknot/NJ/1523470/06; test: MDCK monolayer microneutralization assay; format: cell-based, influenza A; details: H7 A/Redknot/NJ/1523470/06, bird virus
[9] = test system: H7 A/Ruddy Turnstone/A106-892; test: MDCK monolayer microneutralization assay; format: cell-based, influenza A; details: H7 A/Ruddy Turnstone/A106-892, bird virus
[10] = test system: H10 (H10N7) A/Northern Shoveler; format: cell-based, influenza A
H3N2: A/Perth/16/09 = test system: H3N2: A/Perth/16/09; set-up: species or system mice; details: mouse, in vivo, ip, 10 mg/kg
[11] = test system: H7N3: A/Red Knot/NJ/1523470/06; set-up: species or system mice; details: mouse, in vivo, ip, 10 mg/kg
A/Ca/04/09 (H1N1) = test: In vivo efficacy, treatment at Day 2; set-up: species or system mice; details: IP at Day 2, 10 mg/kg (mixture 10 mg/kg each), FIGS. 6A, 6C
Philippines 2/82 = test system: Philippines 2/82; set-up: species or system mice; details: mouse, in vivo
H3 = test: Binding by MAB579 in vitro (FIG. 2); set-up: species or system influenza A; details: H3, FIG. 2
H7 = test: Binding by MAB579 in vitro (FIG. 2); set-up: species or system influenza A; details: H7, FIG. 2
H1 = test: Binding by MAB579 in vitro (FIG. 2); set-up: species or system influenza A; details: H1, FIG. 2
[12] = target: HA of clades spanning Group 2; test: Standard FortéBio assay (FIG. 3B); format: binding, influenza A; details: Group 2, FIG. 3B
H1 HA = format: binding, influenza A; details: read-out: affinity
H5 HA = format: binding, influenza A; details: read-out: affinity
H3 HA = format: binding, influenza A; details: read-out: affinity
H1N1 = format: cell-based, influenza A
H7N3 = format: cell-based, influenza A
H5N1 = format: cell-based, influenza A
H9N2 = format: cell-based, influenza A

What does the source list for `CCOC(=O)C1=C[C@@H](OC(CC)CC)[C@H](NC(C)=O)[C@@H](N)C1` [Tamiflu, oseltamivir phosphate, reference compound]?
survival ([1]; 10 mice per group, treatment from Day +1, to Day 14): all but two mice were dead before eight days post infection; weight attained, of the original weight ([1]; by Day 14): 92%; day at which decline in weight was reversed ([1]; treatment from Day +1): ≤ 6 days

B1: MAB579 (antibody, V domains shown)
VH: QVQLVQSGAEVKKPGASVKVSCKTSGYTFTAYTIHWVRQAPGQRLEWMGWINAGNGHTKYSQRFKGRVTITRDTSARTTYMELRSLTSEDTALYFCARGPETYYYDKTNWLNSHPDEYFQHWGHGTQVTVSS
VL: DIQMTQSPSTLSASVGDRVTITCRASQTINNYLAWYQQKPGKAPKLLIYKASSLESGVPSRFSGSGSGTEFTLTISSLQPDDFATYYCQEYNNDSPLTFGGGTKVEIK
modifications: CHAIN (1)...(132) MAB579 heavy chain sequence of variable domain; DOMAIN (31)...(35) CDR1; DOMAIN (50)...(67) CDR2; DOMAIN (99)...(121) CDR3; CHAIN (1)...(108) MAB579 light chain sequence of variable domain; DOMAIN (24)...(34) CDR1; DOMAIN (50)...(57) CDR2; DOMAIN (89)...(98) CDR3
How did the Kd (H3N2 A/Perth/16/2009 HA; read-out: Affinity by FortéBio) turn out when B1 was run?
The Kd was 0.7 nM.

And the Kd (H3N2 A/Perth/16/2009 HA; read-out: KD)?
The Kd was 0.8 nM.

What about the Kd [2] of the same molecule?
The Kd was 0.2 nM.

And the Kd (H3N2 A/Hong Kong/8/68 HA)?
The Kd was 0.2 nM.

And the Kd ([3]; read-out: Affinity by FortéBio)?
Its Kd is 0.4 nM.

And the Kd ([3]; read-out: KD)?
The Kd was 0.4 nM.

And the Kd [4]?
Its Kd is 0.6 nM.

And the “IC50” value (H3N2 A/Perth/16/2009; H3 A/Perth/16/2009)?
Its value is 0.2 µg/mL.

And the “Potency Difference” value (H3N2 A/Perth/16/2009; MAB579 vs CR8020 EC50, H3N2 A/Perth/16/2009)?
Its value is 40x.

What about the “EC50” value (H3N2 A/Perth/16/2009; in vitro neutralization, H3N2 A/Perth/16/2009) of the same molecule?
The value was 0.05 µg/mL.

And the “IC50” value [5]?
Its value is 0.9 µg/mL.

And the “IC50” value (H3 A/Udorn/307/1976)?
The value was 1.9 µg/mL.

And the “IC50” value (H3N2 A/New York/55/2004; H3 A/New York/55/2004*)?
Its value is 1.1 µg/mL.

What about the “Potency Difference” value (H3N2 A/New York/55/2004; MAB579 vs CR8020 EC50, H3N2 A/New York/55/2004) of the same molecule?
Its value is 5x.

What about the “EC50” value (H3N2 A/New York/55/2004; in vitro neutralization, H3N2 A/New York/55/2004) of the same molecule?
The value was 2.0 µg/mL.

And the “IC50” value (H3N2 A/Wisconsin/67/2005; H3 A/Wisconsin/67/2005)?
Its value is 1.0 µg/mL.

And the “Potency Difference” value (H3N2 A/Wisconsin/67/2005; MAB579 vs CR8020 EC50, H3N2 A/Wisconsin/67/2005)?
Its value is 3x.

What about the “EC50” value (H3N2 A/Wisconsin/67/2005; in vitro neutralization, H3N2 A/Wisconsin/67/2005) of the same molecule?
Its value is 1.0 µg/mL.

And the “IC50” value ([6]; H3 A/HongKong/68)?
The value was 2.8 µg/mL.

And the “Potency Difference” value ([6]; MAB579 vs CR8020 EC50, H3N2 A/Hong Kong/8/68)?
Its value is 3x.

What about the “EC50” value ([6]; in vitro neutralization, H3N2 A/Hong Kong/8/68) of the same molecule?
Its value is 2.0 µg/mL.

What about the “IC50” value (H3 A/SW/MN/02719) of the same molecule?
Its value is 3.9 µg/mL.

And the “EC50” value (H4 (H4N4) A/Bufflehead)?
The value was 15.0 µg/mL.

And the “IC50” value (H4 (H4N4) A/Bufflehead)?
The value was 15.5 µg/mL.

What about the “Potency Difference” value (H4 (H4N4) A/Bufflehead) of the same molecule?
The value was 3x.

What about the “EC50” value (H7N3 A/Canada/rv444/04) of the same molecule?
Its value is 0.5 µg/mL.

And the “IC50” value (H7N3 A/Canada/rv444/04)?
The value was 1.6 µg/mL.

And the “EC50” value [7]?
The value was 0.7 µg/mL.

What about the “IC50” value [7] of the same molecule?
The value was 0.6 µg/mL.

And the “Potency Difference” value [7]?
The value was 20x.

And the “IC50” value (H7 A/Sanderling/A106-125)?
The value was over 20 µg/mL.

And the “IC50” value [8]?
Its value is over 20 µg/mL.

What about the “IC50” value [9] of the same molecule?
Its value is over 20 µg/mL.

What about the “EC50” value [10] of the same molecule?
Its value is 0.8 µg/mL.

What about the “IC50” value [10] of the same molecule?
The value was 0.8 µg/mL.

And the “therapeutic effectiveness (survival)” value (H3N2: A/Perth/16/09)?
Its value is “essentially fully effective”.

What about the “therapeutic effectiveness (survival)” value [11] of the same molecule?
Its value is “essentially fully effective”.

And the protection / survival (A/Ca/04/09 (H1N1))?
The protection / survival was “no survivors after 10 days”.

What about the protection / survival (Philippines 2/82) of the same molecule?
Its protection / survival is “effective”.

What about the “binding affinity (in words)” value (H3) of the same molecule?
The value was “tightly bound”.

What about the “binding affinity (in words)” value (H7) of the same molecule?
The value was “tightly bound”.

And the “binding affinity (in words)” value (H1)?
The value was “negligible binding affinity”.

And the “affinity across clades (in words)” value [12]?
The value was “sub-nM affinity”.

B2: MAB8 (antibody)
VH: EVQLVESGGGLVKPGGSLRLSCAASGFTFSTYTMSWVRQAPGQGLEWVSSITRTSSNIYYADSVEGRFTISRDNAKNSLYLQMHSLRVEDTAVYYCARISGVVGPVPFDYWGQGTLITVSS
light: DIQMTQSPSSLSASVGDRVTITCRASQTISKYLNWYQQKPGRAPKLLIYSASSLQSGVPSRFTGSGSGTDFTLTITSLQPEDFATYYCQQSYRPSQITFGPGTKVDIK
modifications: CHAIN (1)...(121) MAB8 heavy chain sequence of variable domain; CHAIN (1)...(108) MAB8 light chain sequence
Which Kd (H1 HA) does the source give for B2 here?
Its Kd is 9 nM.

What about the Kd (H5 HA) of the same molecule?
The Kd was 0.2 nM.

And the Kd (H3 HA)?
The Kd was 16 nM.

And the “neutralization of infection (in words)” value (H1N1)?
Its value is “does not neutralize infection”.

What about the “neutralization of infection (in words)” value (H7N3) of the same molecule?
The value was “does not neutralize infection”.

And the “neutralization of infection (in words)” value (H5N1)?
Its value is “does not neutralize infection”.

What about the “neutralization of infection (in words)” value (H9N2) of the same molecule?
The value was “does not neutralize infection”.

— patent US10654915B2, “Antibodies useful in passive influenza immunization” (priority 2011, dated 2020)
